# Experimental data reported in paper PMC1291349, “Molecular Identification of a Malaria Merozoite Surface Sheddase” (PLoS Pathogens, 2005).
# T1: subtilisin BPN′ (UniProt P00782 108-382)
# T1 construct: subtilisin BPN′, a bacterial subtilisin; source: bought: Sigma
# T1 sequence (looked up): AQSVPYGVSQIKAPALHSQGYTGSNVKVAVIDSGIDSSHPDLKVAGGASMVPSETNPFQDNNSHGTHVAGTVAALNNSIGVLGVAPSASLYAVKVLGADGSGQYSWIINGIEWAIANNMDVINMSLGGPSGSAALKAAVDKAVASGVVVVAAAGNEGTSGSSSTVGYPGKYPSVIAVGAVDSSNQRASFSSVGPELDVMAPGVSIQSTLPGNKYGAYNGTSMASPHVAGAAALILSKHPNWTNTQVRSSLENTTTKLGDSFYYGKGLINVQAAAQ
# B1: PfSUB2PD (recombinant PfSUB2 propeptide, Asn22-Leu687) (domain or fragment)
# chain: NNNNNYYLSNIELYNYKLRKRNRILNNNINDRKSFLSDLEQNYKPLFDIYELSANFEKRRKELEKKTKGEENEIEKKKENDLEEKKENEIEKKKENDLEKEYNDVINLLELSLSSEYKELNADVSNNDNSGHEENNKHKLNKKNSSNYKNDKSLDELIKGAILKLKQNPNIKNKNMLDYDKIFKIIKEKLINKNLASNKIKGGDNEKLKEEKKQSDISTNVEVKKDIINDQLNKGIPTKIENKDDMINKESNKEDITNEGKSNSLNNLNTLNNDGNIITKVYDHYTIVTNSNDILNDISIDASDISKNSIGGINIPFNENDNSSFTHQRYIVLSNNGEKKYKIVLMTKNPKFMDMDGIYDEEEKKESLIELNQKVNKEENTNLYDGTGTLYYGKKSKKEKENTQQKGGNNPNVDINILNNNNNNNNNNNNNSNNNSNSMNDEEINYNNNNNKESPSMFRRFINFLSFSGNENETEDTLIYHNKNDNSYKNKKEGTGKNNDNNDPNNNNNKKILLNVDKLVDQYLLNLKNNHTSKQELILVLKGELDLHSKNMKNVINNAKKNLEKYFKEHFKEFDKISYDISTPINFLCIFIPTLFDMNNMDLLKQALLILHNDLHEYVENWSFSSTYHTYEADYIKEQDSVYDRSPKKKYIKASKKLYNNKYSFL
# notes: PfSUB2, subtilisin-like protease 2 of P. falciparum T9/96, propeptide region Asn22-Leu687, amplified from the synthetic gene pfsub2synth; Asn22 is the predicted N-terminus after signal peptide removal; Cleavable 46-residue N-terminal fusion peptide with His6 and S-tag, from the vector pET-30Xa/LIC; not shown: His6, N-terminal, kept; S-tag, N-terminal, kept
# Columns and labels:
# [1] = target: PfSUB2T, 72-kDa terminal intracellular form of PfSUB2, HA3-tagged (P. falciparum) (UniProt O97364)
# Chain of PfSUB2T, 72-kDa terminal intracellular form of PfSUB2, HA3-tagged (P. falciparum) (O97364 688-1342): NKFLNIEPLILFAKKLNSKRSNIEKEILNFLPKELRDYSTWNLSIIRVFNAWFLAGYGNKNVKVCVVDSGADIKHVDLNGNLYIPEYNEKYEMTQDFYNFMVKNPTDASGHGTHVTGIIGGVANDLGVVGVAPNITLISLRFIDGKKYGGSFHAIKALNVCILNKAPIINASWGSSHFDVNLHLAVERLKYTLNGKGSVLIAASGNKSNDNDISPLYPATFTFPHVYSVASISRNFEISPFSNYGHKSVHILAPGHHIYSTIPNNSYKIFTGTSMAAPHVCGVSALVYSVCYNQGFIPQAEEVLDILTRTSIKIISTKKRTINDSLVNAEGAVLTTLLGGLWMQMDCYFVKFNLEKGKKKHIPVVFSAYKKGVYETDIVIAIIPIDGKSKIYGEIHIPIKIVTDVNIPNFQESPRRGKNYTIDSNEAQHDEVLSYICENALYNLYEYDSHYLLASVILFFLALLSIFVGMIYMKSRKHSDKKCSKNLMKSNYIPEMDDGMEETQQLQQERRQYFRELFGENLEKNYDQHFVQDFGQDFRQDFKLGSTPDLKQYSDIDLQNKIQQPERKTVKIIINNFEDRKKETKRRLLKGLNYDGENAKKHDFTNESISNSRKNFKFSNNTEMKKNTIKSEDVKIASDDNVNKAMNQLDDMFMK
# subtilisin BPN′ = target: T1, subtilisin BPN′; experiment: enzyme inhibition kinetics (Ki determination); hydrolysis of N-succinyl-L-Ala-L-Ala-L-Pro-L-Phe-p-nitroanilide by subtilisin BPN′ with PfSUB2PD; Ki determined as in ref. 33; data not shown; conditions: both partners purified
binder,measurement,setting,value
B1,IC50 of inhibition of shedding of AMA1 and MSP1 (MESH activity) from isolated 3D7 merozoites; PfSUB2PD titrated from 1.2 μM to 0.075 μM,[1],300 nM
same,Ki,subtilisin BPN′,1200 nM
